Source: article PMC9544323, “Abscisic acid regulates stomatal production by imprinting a SnRK2 kinase–mediated phosphocode on the master regulator [sequence]” (Science Advances, 2022)

T1: GST-SPCH (glutathione S-transferase-tagged …) (Arabidopsis thaliana, UniProt Q700C7 1-364)
T1 construct: cDNA cloned into pDEST15; cDNA recombined into pDEST15; also called GST-tagged SPCH; source: E. coli ArcticExpress (DE3), purified (Pierce Glutathione Agarose)
T1 sequence (looked up): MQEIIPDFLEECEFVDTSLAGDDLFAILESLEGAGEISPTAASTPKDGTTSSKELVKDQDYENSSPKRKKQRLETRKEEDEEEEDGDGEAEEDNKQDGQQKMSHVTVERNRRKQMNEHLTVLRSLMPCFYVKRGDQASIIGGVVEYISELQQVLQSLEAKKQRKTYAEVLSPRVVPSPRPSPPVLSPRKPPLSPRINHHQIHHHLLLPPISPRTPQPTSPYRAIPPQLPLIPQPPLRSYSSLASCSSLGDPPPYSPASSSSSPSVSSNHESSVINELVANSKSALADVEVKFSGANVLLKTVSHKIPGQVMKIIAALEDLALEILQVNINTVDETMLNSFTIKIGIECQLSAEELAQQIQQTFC


target: T1, GST-SPCH (glutathione …); assay: pull-down; GST-SPCH or GST (1 ug) on Pierce Glutathione Agarose; MBP-SnRK2.2/2.3/2.6 or MBP alone (1 ug) added; 4 C, 2 hours; washed five times with 20 mM tris-HCl pH 7.5, 300 mM NaCl, 0.1% NP-40, 1 mM EDTA; blot with anti-MBP; conditions: both partners purified

| binding result | Binder |
| --- | --- |
| binds | MBP-SnRK2.2 (maltose-binding protein-tagged SnRK2.2) (enzyme, Arabidopsis thaliana, UniProt Q39192 1-362, looked up, SnRK2.2/SRK2D, subclass III SNF1-related protein kinase 2, Arabidopsis thaliana; cDNA cloned into pETG-40A; also called SRK2D; source: E. coli ArcticExpress (DE3), purified (MBP amylose resin)) MDPATNSPIMPIDLPIMHDSDRYDFVKDIGSGNFGVARLMTDRVTKELVAVKYIERGEKIDENVQREIINHRSLRHPNIVRFKEVILTPSHLAIVMEYAAGGELYERICNAGRFSEDEARFFFQQLISGVSYCHAMQICHRDLKLENTLLDGSPAPRLKICDFGYSKSSVLHSQPKSTVGTPAYIAPEILLRQEYDGKLADVWSCGVTLYVMLVGAYPFEDPQEPRDYRKTIQRILSVTYSIPEDLHLSPECRHLISRIFVADPATRITIPEITSDKWFLKNLPGDLMDENRMGSQFQEPEQPMQSLDTIMQIISEATIPTVRNRCLDDFMADNLDLDDDMDDFDSESEIDVDSSGEIVYAL |
| binds | MBP-SnRK2.6 (maltose-binding protein-tagged SnRK2.6) (enzyme, Arabidopsis thaliana, UniProt Q940H6 1-362, looked up, SnRK2.6/SRK2E/OST1, subclass III SNF1-related protein kinase 2, Arabidopsis thaliana; cDNA cloned into pETG-40A; also called SRK2E; OPEN STOMATA 1; source: E. coli ArcticExpress (DE3), purified (MBP amylose resin)) MDRPAVSGPMDLPIMHDSDRYELVKDIGSGNFGVARLMRDKQSNELVAVKYIERGEKIDENVKREIINHRSLRHPNIVRFKEVILTPTHLAIVMEYASGGELFERICNAGRFSEDEARFFFQQLISGVSYCHAMQVCHRDLKLENTLLDGSPAPRLKICDFGYSKSSVLHSQPKSTVGTPAYIAPEVLLKKEYDGKVADVWSCGVTLYVMLVGAYPFEDPEEPKNFRKTIHRILNVQYAIPDYVHISPECRHLISRIFVADPAKRISIPEIRNHEWFLKNLPADLMNDNTMTTQFDESDQPGQSIEEIMQIIAEATVPPAGTQNLNHYLTGSLDIDDDMEEDLESDLDDLDIDSSGEIVYAM |
| binds | MBP-SnRK2.3 (maltose-binding protein-tagged SnRK2.3) (enzyme, Arabidopsis thaliana, UniProt Q39193 1-361, looked up, SnRK2.3/SRK2I, subclass III SNF1-related protein kinase 2, Arabidopsis thaliana; cDNA cloned into pETG-40A; also called SRK2I; source: E. coli ArcticExpress (DE3), purified (MBP amylose resin)) MDRAPVTTGPLDMPIMHDSDRYDFVKDIGSGNFGVARLMRDKLTKELVAVKYIERGDKIDENVQREIINHRSLRHPNIVRFKEVILTPTHLAIIMEYASGGELYERICNAGRFSEDEARFFFQQLLSGVSYCHSMQICHRDLKLENTLLDGSPAPRLKICDFGYSKSSVLHSQPKSTVGTPAYIAPEVLLRQEYDGKIADVWSCGVTLYVMLVGAYPFEDPEEPRDYRKTIQRILSVKYSIPDDIRISPECCHLISRIFVADPATRISIPEIKTHSWFLKNLPADLMNESNTGSQFQEPEQPMQSLDTIMQIISEATIPAVRNRCLDDFMTDNLDLDDDMDDFDSESEIDIDSSGEIVYAL |
